Earlier results, collected in publication PMC13351906.

Target: IL-6 receptor (Homo sapiens) (UniProt P08887)
Assay: 125I-rhIL-6 radioligand binding

Sequence of UniProt P08887 (P08887 20-365): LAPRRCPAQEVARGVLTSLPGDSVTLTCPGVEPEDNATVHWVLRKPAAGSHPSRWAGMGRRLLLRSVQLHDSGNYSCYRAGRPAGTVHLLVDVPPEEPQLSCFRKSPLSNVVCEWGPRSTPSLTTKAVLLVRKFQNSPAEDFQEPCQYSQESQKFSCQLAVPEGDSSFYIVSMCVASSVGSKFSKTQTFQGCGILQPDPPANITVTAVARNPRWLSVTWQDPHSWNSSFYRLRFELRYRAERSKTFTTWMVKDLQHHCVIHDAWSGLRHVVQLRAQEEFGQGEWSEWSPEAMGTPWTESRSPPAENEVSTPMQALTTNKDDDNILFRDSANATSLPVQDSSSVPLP
Sequence of IL-6 (P05231 30-212): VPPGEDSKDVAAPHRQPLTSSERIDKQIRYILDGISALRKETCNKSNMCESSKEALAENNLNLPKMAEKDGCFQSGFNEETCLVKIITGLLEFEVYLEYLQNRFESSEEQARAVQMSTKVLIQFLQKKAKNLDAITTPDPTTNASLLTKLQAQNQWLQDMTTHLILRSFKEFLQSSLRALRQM

Kd: 0.44 nM
Substance: IL-6 (from UniProt P05231)
